The chains are these.
B1: Methanosarcina thermophila carbon monoxide dehydrogenase (MetCODH) α subunit (enzyme, UniProt A0A0E3ND19 1-803, looked up)
chain: MSKLTTGSFSIEDLESVQITINNIVGAAKEAAEKAEEELGPMGPTPFPTAATVRDWSFTLFDRYEPVYTPMCDQCCYCTFGPCNLEGNRRGACGLDMKGQAAREFFLRCITGCACHSAHGRHLLDHIISIFGEDMPINMGASNVIAPNIQLITGRQPKTLGDLKPIMEYVEEELGQLLATVHAGQEGAAIDYDNKAMLAGILDHVGMEVSDIAQVTALGFPKSDPEAPLVEVGMGTLDASKPVIIAIGHNVAGVTYIMDYMEDNNLTDKMEIGGLCCTAFDMTRYKREDRKPPYAKIVGTISKELKVVRSGIPDVIVIDEQCVRADLVEEGKKLKIPVIASNEKVMYGLPDRTNDDVDAIIEDIKTGKIPGCVMLDYEKLGELVPRLAMEMAPLREGISAIPSDEEMASLVAKCVACGECALACPEELDIPDAIQAAKEGDFTALDFLHDLCVGCRRCEQVCNKEIPILSVIDKAAQKAIAEEKGLVRAGRGQVSDAEIRAEGLNLVMGTTPGVIAIIGCANYPAGSKDVYRIAEEFLNRNYIVAVSGCSAMDIGMYKDADGKTLYERFPGRFERGNILNTGSCVSNSHISGTCHKVAAIFAGRNLSGNLAEIADYTLNRVGAVGLAWGAYSQKAAAIGTGCNMYGIPAVLGPHSGKYRRALIAKTYDENKWKVYDSRNGSELDIPPSPEFLITTAETWQEACVLLAKNCIRPSDNNMGRSIKLTHWIELSEKYLGVLPEDWWKFVRHEADLPLSRREELLKKLETEHGWEIDWKKKKIISGPKIKFDVSSQPTNLKRLCKEA
notes: α subunit of the CODH component of the acetyl-CoA decarbonylase/synthase (ACDS) complex, Methanosarcina thermophila strain TM-1; source: purified from M. thermophila strain TM-1 as part of the ACDS complex (Sepharose CL-6B); subcomplexes formed by dissociation on the cryo-EM grid

Data set [1] deals with the molecule itself. In words: cryo-EM structure; purified native ACDS complex, 4 mg/mL in 25 mM MOPS, 25 mM Na2SO4, pH 7.2; chameleon-plunged, dispense-to-plunge time 150 ms; on-grid dissociation gave CODH tetramer (2.8 Å), CODH/ACS pentamer and hexamer (3.2 Å each).
The target in data set [2] is B1. The data set is described as above. The note with it: both partners purified.

Take B1: the binding result in data set [1] is recorded as “binds”.

B2: Methanosarcina thermophila acetyl-CoA synthase (MetACS) β subunit (enzyme, UniProt A0A0E3NEI1 1-472, looked up)
chain: MSEFPFEISPMFEGERVRKEGMFVELGGPKSLGLELVRAKPMDEIEDGKVTIVGPDLKDMEEGKTYPWAMIFHVGGELVEPDLESVIERRVHDFINYCQGIMHLNQRYDVWMRISKDTAAKMDSFEPFGKAVMMLFKTELPFIEKMQVTFYTDQAEVEKQMAEAMEIFKARDARTKDLHDEDVDVFYGCTLCQSFAPTNVCVVSPDRVSLCGAINWFDGRAAAKVDPEGPQFAIEKGELLDAKTGEYSGVNEVAKKLSSGEFDKIKLHSFFDAPHTSCGCFEVVGFYIPEVDGIGWVNREYQGMAPNGLGFSTMAGQTGGGKQIVGFLGIGINYFYSPKFIQADGGWNRVVWLPSMLKEKIDEAIPDDMKDKIATEKDVTDIESLKTFLKEKNHPVVANWAAEAEEEEEEEEEEEEVAAEAAPMMMPAAGFQMPAMPAMPMMSGGAGGIKLTFKNAKITIDRMIISEKKEKK
notes: β (ACS) subunit of the ACDS complex, Methanosarcina thermophila strain TM-1; native protein; the model building counts residues 1 to 472, of which 398 to 472 (C-terminal extension) had no EM density; A2 domain residues 4 to 151, A3 domain residues 186 to 397; Carries the Ni-Fe-S A-cluster, with density modelled as CO on the proximal nickel; The deposited coordinates hold only about residues 1-397 …
As for B2, in data set [2], the binding result is recorded as “binds”.

(Values after paper PMC11474084, “Capturing a methanogenic carbon monoxide dehydrogenase/acetyl-CoA synthase complex via cryogenic electron microscopy” (Proceedings of the National Academy of Sciences of the …, 2024).)
